Test results published in paper PMC4232046, “The Janus transcription factor HapX controls fungal adaptation to both iron starvation and iron excess”.

Target: HapX(24-158) (Aspergillus fumigatus, UniProt Q4WER3 24-158)
Experiment: SPR; HapX alone, no CBC; SPR Biacore T200, 25 C; 10 mM phosphate pH 7.4, 2.7 mM KCl, 137 mM NaCl, 1 mM DTT, 0.005% surfactant P20, 10 ug/ml poly(dI-dC); biotin-DNA on streptavidin CM3 chip
Conditions: protein: recombinant; tags: MBP fusion cleaved with TEV; extended N-terminus with TEV site; chain copies: 2; label: 5' biotin on strand 1; blunt

Sequence of HapX(24-158) (Q4WER3 24-158): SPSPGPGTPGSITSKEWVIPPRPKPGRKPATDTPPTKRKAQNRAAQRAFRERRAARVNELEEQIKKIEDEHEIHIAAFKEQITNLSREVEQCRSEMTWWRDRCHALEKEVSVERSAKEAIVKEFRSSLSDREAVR

B1: cccAp-369-37 (dsDNA)
DNA 1: AAATCCACCAATCAACGCCTCCGTGATTGTCAGCAAT
DNA 2: ATTGCTGACAATCACGGAGGCGTTGATTGGTGGATTT
**Q.** Which Kd does the source give for B1 here?
**A.** 171 nM
